Results taken from patent publication US20210072252A1 (WASHINGTON UNIVERSITY, published 2021).

Legend:
[1] = molecular target: T1, peptide with N-terminal histidine; assay: biolayer interferometry (Blitz), peptide-coated sensor, NAAB in 1x PBS, 1:1 fit, kd/ka
T1 construct: also called peptides with N-terminal histidine residues

[2] = molecular target: T1, peptide with N-terminal histidine; assay: biolayer interferometry kinetics; reference: truncated wild-type HisRS fragment
[3] = molecular target: peptide with N-terminal isoleucine; assay: biolayer interferometry (Blitz), peptide-coated sensor, NAAB in 1x PBS, 1:1 fit, kd/ka
[4] = molecular target: peptide with N-terminal glutamine; assay: as above
[5] = molecular target: peptide with N-terminal serine; assay: as above
[6] = molecular target: peptide with N-terminal threonine; assay: as above
[7] = molecular target: peptide with N-terminal valine; assay: as above
[8] = molecular target: peptide with N-terminal lysine; assay: as above

B1: engineered HisNAAB (3-180) (designed binder)
chain: KNIQAIRGMNDYLPGETAIWQRIEGTLKNVLGSYGYSEIRLPIVEQTPLFKRAIGEVTDVVEKEMYTFEDRNGDSLTLRPEGTAGCVRAGIEHGLLYNQEQRLWYIGPMFGNAPQFHQLGCEVFGLQGPDIDAELIMLTARWWRALGISEHVTLELNSIGSLEARANYRDA
Kd [1]: 98700 nM | fold improvement in binding affinity against the wild-type fragment [2]: ~10 fold

B2: IleNAAB (enzyme)
chain: FPMRGDLAKREPGMLARWTDDDLYGIIRAAKKGKKTFILHDGPPYANGSIHIGHSVNKILKDIIIKSKGLSGYDSPYVPGWDCHGLPIELKVEQEYGKPGEKFTAAEFRAKCREYAATQVDGQRKDFIRLGVLGDWSHPYLTMDFKTEANIIRALGKIIGNGHLHKGAKPVHWCVDCRSALAEAEVEYYDKTSPSIVAFQAVDQDALKTKFGVSNVNGPISLVIWTTTPWTLPANRAISIAPDFDYALVQIDGQAVILAKDLVESMQRIGVSDYTILGTVKGAELELLRFTHPFMDFDVPAILGDHVTLDAGTGAVHTAPGHGPDDYVIGQKYGLETANPVGPDGTYLPGTYPTLDGVNVFKANDIVVALLQEKGALLHVEKMQHSYPCCWRHKTPIIFRATPQWFVSMDQKGLRAQSLKEIKGVQWIPDWGQARIESMVANRPDWCISRQRTWGVPMSLFVHKDTEELHPRTLELMEEVAKRVEVDGIQAWWDLDAKEILGDEADQYVKVPDTLDVWFDSGSTHSSVVDVRPEFAGHAADMYLEGSDQHRGWFMSSLMISTAMKGKAPYRQVLTHGFTVDGQGRKMSKSIGNTVSPQDVMNKLGADILRLWVASTDYTGEMAVSDEILKRAADSYRRIRNTARFLLANLNGFDPAKDMVKPEEMVVLDRWAVGCAKAAQEDILKAYEAYDFHEVVQRLMRFCSVEMGSFYLDIIKDRQYTAKADSVARRSCQTALYHIAEALVRWMAPILSFTADEVWGYLPGERE
notes: Purified on GSTrap; also called Isoleucine
Kd [3]: 3010 nM

B3: GlnNAAB (enzyme)
chain: TNFIRQIIDEDLASGKHTTVHTRFPPEPNGYLHIGHAKSICLNFGIAQDYKGQCNLRFDDTNPVKEDIEYVESIKNDVEWLGFHWSGNVRYSSDYFDQLHAYAIELINKGLAYVDELTPEQIREYRGTLTQPGKNSPYRDRSVEENLALFEKMRTGGFEEGKACLRAKIDMASPFIVMRDPVLYRIKFAEHHQTGNKWCIYPMYDFTHCISDALEGITHSLCTLEFQDNRRLYDWVLDNITIPVHPRQYEFSR
notes: Purified on GSTrap; also called Glutamine
Kd [4]: 531 nM

B4: SerNAAB (enzyme)
chain: MLDPNLLRNEPDAVAEKLARRGFKLDVDKLGALEERRKVLQVKTENLQAERNSRSKSIGQAKARGEDIEPLRLEVNKLGEELDAAKAELDALQAEIRDIALTIPNLPADEVPVGKDENDNVEVSRWGTPREFDFEVRDHVTLGEMYSGLDFAAAVKLTGSRFVVMKGQIARMHRALSQFMLDLHTEQHGYSENYVPYLVNQDTLYGTGQLPKFAGDLFHTRPLEEEADTSNYALIPTAEVPLTNLVRGEIIDEDDLPIKMTAHTPCFRSEAGSYGRDTRGLIRMHQFDKVEMVQIVRPEDSMAALEEMTGHAEKVLQLLGLPYRKIILCTGDMGFGACKTYDLEVWIPAQNTYREISSCSNVWDFQARRMQARCRSKSDKKTRLVHTLNGSGLAVGRTLVAVMENYQQADGRIEVPEVLRPYMNGLEYI
notes: Purified on GSTrap; also called Serine
Kd [5]: 938 nM

B5: ThreNAAB (enzyme)
chain: RDHRKIGKQLDLYHMQEEAPGMVFWHNDGWTIFRELEVFVRSKLKEYQYQEVKGPFMMDRVLWEKTGHWDNYKDAMFTTSSENREYCIKPMNCPGHVQIFNQGLKSYRDLPLRMAEFGSCHRNEPSGSLHGLGRVRGFTQDDAHIFCTEEQIRDEVNGCIRLVYDMYSTFGFEKIVVKLSTRPEKRIGSDEMWDRAEADLAVALEENNIPFEYQLGEGAFYGPKIEFTLYDCLDRAAQCGTVQLDFSLPSRLSASYVGEDNERKVPVMIHRAILGSMEVFIGILTEEFAGFFPTWLAPVQVVIMNITDSQSEYVNELTQKLSNAGIRVKADLRNEKIGFKIREHTLRRVPYMLVCGDKEVESGKVAVRTRRGKDLGSMDVNEVIEKLQQEIRSRSLKQLEE
notes: Purified on GSTrap; also called Threonine
Kd [6]: 1010 nM

B6: ValNAAB (enzyme)
chain: MEKTYNPQDIEQPLYEHWEKQGYFKPNGDESQESFCIMIPPPNVTGSLHMGHAFQQTIMDTMIRYQRMQGKNTLWQVGTDHAGIATQMVVERKIAAEEGKTRHDYGREAFIDKIWEWKAESGGTITRQMRRLGNSVDWERERFTMDEGLSNAVKEVFVRLYKEDLIYRGKRLVNWDPKLRTAISDLEVENRESKGSMWHIRYPLADGAKTADGKDYLVVATTRPETLLGDTGVAVNPEDPRYKDLIGKYVILPLVNRRIPIVGDEHADMEKGTGCVKITPAHDFNDYEVGKRHALPMINILTFDGDIRESAQVFDTKGNESDVYSSEIPAEFQKLERFAARKAVVAAIDALGLLEEIKPHDLTVPYGDRGGVVIEPMLTDQWYVRADVLAKPAVEAVENGDIQFVPKQYENMYFSWMRDIQDWCISRQLWWGHRIPAWYDEAGNVYVGRNEEEVRKENNLGADVALRQDEDVLDTWFSSALWTFSTLGWPENTDALRQFHPTSVMVSGFDIIFFWIARMIMMTMHFIKDENGKPQVPFHTVYMTGLIRDDEGQKMSKSKGNVIDPLDMVDGISLPELLEKRTGNMMQPQLADKIRKRTEKQFPNGIEPHGTDALRFTLAALASTGRDINWDMKRLEGYRNFCNKLWNASRFVLMNTEGQDCGFNGGEMTLSLADRWILAEFNQTIKAYREALDSFRFDIAAGILYEFTWNQFCDWYLELTKPVMNGGTEAELRGTRHTLVTVLEGLLRLAHPIIPFITETIWQ
notes: Purified on GSTrap; also called Valine
Kd [7]: 1220 nM

B7: LysNAAB (enzyme)
chain: ANDKSRQTFVVRSKILAAIRQFMVARGFMEVETPMMQVIPGGASARPFITHHNALDLDMYLRIAPELYLKRLVVGGFERVFEINRNFRNEGISVRHNPEFTMMELYMAYADYHDLIELTESLFRTLAQEVLGTTKVTYGEHVFDFGKPFEKLTMREAIKKYRPETDMADLDNFDAAKALAESIGITVEKSWGLGRIVTEIFDEVAEAHLIQPTFITEYPAEVSPLARRNDVNPEITDRFEFFIGGREIGNGFSELNDAEDQAERFQEQVNAKAAGDDEAMFYDEDYVTALEYGLPPTAGLGIGIDRMIMLFTNSHTIRDVILFPAMRP
notes: Purified on GSTrap; also called Lysine
Kd [8]: 2610 nM
